Reference: US20260226179A1 (MAB DESIGNS, published 2026)
“And” between values parts separate entries of the source, which are not always exact repeats. Equal entries are not always repeated.

T1: human soluble IL-6R (human, UniProt P08887 20-357)
T1 sequence: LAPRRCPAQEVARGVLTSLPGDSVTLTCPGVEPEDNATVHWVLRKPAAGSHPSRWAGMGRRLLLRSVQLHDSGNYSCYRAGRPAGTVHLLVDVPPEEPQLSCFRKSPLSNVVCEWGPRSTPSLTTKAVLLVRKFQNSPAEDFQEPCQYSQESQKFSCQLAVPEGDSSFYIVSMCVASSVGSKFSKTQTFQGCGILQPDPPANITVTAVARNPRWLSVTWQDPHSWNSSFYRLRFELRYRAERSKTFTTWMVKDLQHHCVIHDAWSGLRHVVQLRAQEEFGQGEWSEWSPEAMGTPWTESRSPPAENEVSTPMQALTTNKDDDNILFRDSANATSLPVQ

T2: human membrane-bound IL-6R subunit alpha (human, UniProt P08887 20-468)
T2 sequence: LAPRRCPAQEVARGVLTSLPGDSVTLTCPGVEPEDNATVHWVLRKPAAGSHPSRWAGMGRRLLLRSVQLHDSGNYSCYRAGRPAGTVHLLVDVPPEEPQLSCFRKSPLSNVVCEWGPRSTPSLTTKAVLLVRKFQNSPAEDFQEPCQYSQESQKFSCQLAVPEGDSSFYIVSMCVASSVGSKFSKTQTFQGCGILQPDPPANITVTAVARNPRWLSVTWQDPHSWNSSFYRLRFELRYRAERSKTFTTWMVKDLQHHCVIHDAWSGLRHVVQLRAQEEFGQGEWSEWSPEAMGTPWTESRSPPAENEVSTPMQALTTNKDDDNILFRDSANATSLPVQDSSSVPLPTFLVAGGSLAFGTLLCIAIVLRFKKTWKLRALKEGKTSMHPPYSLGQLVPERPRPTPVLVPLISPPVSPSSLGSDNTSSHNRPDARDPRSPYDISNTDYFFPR

T3: human soluble IL-6R (human, UniProt P08887 20-357, limits assumed)
T3 sequence: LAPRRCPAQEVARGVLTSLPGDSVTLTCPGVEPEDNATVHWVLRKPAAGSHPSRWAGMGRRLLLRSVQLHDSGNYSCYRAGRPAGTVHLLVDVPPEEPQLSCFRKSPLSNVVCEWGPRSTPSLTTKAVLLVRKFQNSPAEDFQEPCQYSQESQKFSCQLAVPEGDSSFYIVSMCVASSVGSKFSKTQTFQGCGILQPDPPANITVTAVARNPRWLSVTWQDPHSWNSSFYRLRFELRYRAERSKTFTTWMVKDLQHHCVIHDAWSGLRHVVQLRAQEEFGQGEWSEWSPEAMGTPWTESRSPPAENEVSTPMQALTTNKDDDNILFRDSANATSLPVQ


Columns and labels:
Assay in all cases: cell-based or functional assay
human soluble IL-6R [1] = target: T1, human soluble IL-6R
[2] = target: T2, human membrane-bound IL-6R subunit alpha
human soluble IL-6R [3] = target: T1, human soluble IL-6R; remark: listed apart in the source
human soluble IL-6R [4] = target: T1, human soluble IL-6R; remark: listed apart in the source
[5] = target: T2, human membrane-bound IL-6R subunit alpha; remark: listed apart in the source
human soluble IL-6R [6] = target: T3, human soluble IL-6R
[7] = target: Hyper-IL-6 (recombinant fusion protein consisting of IL-6 and soluble IL-6R)

| Proliferation in % (Ba/F3_gp130 cells, IL-6 + sIL-6R = 100%; IL-6 trans signalling; 1% PE) (human soluble IL-6R [1]) [%] | Proliferation in % (Ba/F3_gp130_IL-6R cells, IL-6 + sIL-6R = 100%; combined IL-6 classical and trans signalling; 1% PE) [2] [%] | Classical:trans signalling ratio proliferation (human soluble IL-6R [3]) [ratio] | Classical:trans signalling ratio intracellular signalling (human soluble IL-6R [4]) [ratio] | Residual STAT3 phosphorylation in HEK293 (IL-6 + sIL-6R; IL-6 trans signalling; 1% PE) (human soluble IL-6R [4]) [%] | Residual STAT3 phosphorylation in HEK293_IL-6R (IL-6 + sIL-6R; combined classical and trans signalling; 1% PE) [5] [%] | IC50 of inhibition of proliferation of Ba/F3_gp130 cells induced by 10 ng/ml IL-6 and 200 ng/ml sIL-6R (human soluble IL-6R [6]) | IC50 of inhibition of proliferation of Ba/F3_gp130 cells induced by 28 ng/ml Hy-IL-6 [7] | Binder |
| --- | --- | --- | --- | --- | --- | --- | --- | --- |
| 47.9 | 61.6 | 1.3 | 2.1 | 42 | 90 |  |  | candidate anti-IL-6R Fab clone 12 (Fab, V domains shown) VH: EVKLMESGGGLVQPGGSLKLSCAASGFTFSNYGMSWVRQTPDKRLEWVANINSNGGSTYYPDSVKGRFTISRDNAQNTLYLQMSSLKSEDTAMYYCTRDGNFVSDYWGQGTTLTVSS VL: DIVLTQSPASLAVSPGQRATISCRASESVDSYGNSFMNWYQQKPGQPPKLLIYLASNLESGVPARFSGSGSRTDFTLTIDPVEADDAATYYCQQNNEDPYTFGGGTKLEIK |
| 36.6 | 81.9 | 2.2 | 3 | 32 | 97 |  |  | candidate anti-IL-6R Fab clone 20 (Fab, V domains shown) VH: EVKLMESGGGLVQPGGSLKLSCAASGFTFSNYGMSWVRQTPDKRLELVAIINSNGGSTYYPDSVKGRFTISRDNAKNTLYLQMSSLKSEDTAIYYCARDGNFVSDYWGQGTTLTVSS VL: DIVLTQSPASLAVSLGQRATISCRASESVDSYGNRFLNWYQQKPGQPPKLLIYLASNLESGVPARFSGSGSRTDFTLTIDPVEADDAATYYCQQNNEDPYTFGGGTKLEIK |
| 55.7 | 86.1 | 1.5 | 2.8 | 28 | 77 |  |  | candidate anti-IL-6R Fab clone 07 (Fab, V domains shown) VH: EVKLVESGGGLVQPGGSLKLSCAASGFTFSSYAMSWVRQTADKRLELVANINSNGGSTYYPDSVKGRFTISRDNAKNTLFLQMSSLKSEDTAMYYCAREGYYTMDYWGQGTSVTVSS VL: DIVLTQSPASLAVSPGQRATISCRASESVDSYGNSFMNWYQQKPGQPPKLLIYLASNLESGVPARFSGSGSRTDFTLTIDPVEADDAATYYCQQNNEDPYTFGGGTKLEIK |
| 53.3 | 73.3 | 1.4 | 3 | 24 | 72 |  |  | candidate anti-IL-6R Fab clone 19 (Fab, V domains shown) VH: EVKLMESGGGLVQPGGSLKLSCAASGFTFSNYGMSWVRQTPDKRLELVAIMNSKGGSTYYPDSVMGRFTISRDNAKNTLYLQMSSLKSEDTAMYYCARDGYYTMDYWGQGTSVTVSS VL: DIVLTQSPASLAVSLGQRATISCRASKSVDSFGNSFMHWYQQKPGQSPRLLIFLASNLESGVPARFSGSGSRTDFTLTIDPVEADDAATYYCQQNNEDPYTFGGGTKLEIK |
|  |  |  |  |  |  | 159 ng/ml and 3.2 nM | 98 ng/ml and 1.9 nM | anti-IL-6R Fab C20 (purified Fab fragment of C20) (Fab, V domains shown) VH: EVKLMESGGGLVQPGGSLKLSCAASGFTFSNYGMSWVRQTPDKRLELVAIINSNGGSTYYPDSVKGRFTISRDNAKNTLYLQMSSLKSEDTAIYYCARDGNFVSDYWGQGTTLTVSS VL: DIVLTQSPASLAVSLGQRATISCRASESVDSYGNRFLNWYQQKPGQPPKLLIYLASNLESGVPARFSGSGSRTDFTLTIDPVEADDAATYYCQQNNEDPYTFGGGTKLEIK |
